Tests used:
[1] = molecular target: T1, human serum carnosinase (CN1) (Homo sapiens, UniProt Q96KN2); test: Enzymatic hydrolysis by human serum carnosinase; type: in vitro ADME; conditions: 900 μM, 37°C, 50 mM Tris/HCl pH 8.0, 5 hours; versus non-conjugated carnosine
T1 construct: made in house; host or cells: HeLa cells, stably transfected; enzyme purified from the culture medium
T1 sequence (Q96KN2 26-507): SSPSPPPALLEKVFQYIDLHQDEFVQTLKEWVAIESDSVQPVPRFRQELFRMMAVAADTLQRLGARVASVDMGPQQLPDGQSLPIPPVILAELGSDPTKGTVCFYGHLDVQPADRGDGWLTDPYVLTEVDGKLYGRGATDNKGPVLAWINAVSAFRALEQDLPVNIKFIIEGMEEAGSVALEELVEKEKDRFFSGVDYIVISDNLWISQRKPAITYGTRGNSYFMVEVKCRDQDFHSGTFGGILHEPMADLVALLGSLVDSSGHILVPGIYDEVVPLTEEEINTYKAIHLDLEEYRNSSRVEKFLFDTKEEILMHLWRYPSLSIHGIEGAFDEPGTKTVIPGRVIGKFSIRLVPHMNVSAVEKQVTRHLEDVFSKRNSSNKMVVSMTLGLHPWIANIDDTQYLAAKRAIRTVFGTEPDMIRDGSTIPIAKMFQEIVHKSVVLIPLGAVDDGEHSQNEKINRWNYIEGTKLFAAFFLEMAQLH
Description: The time-dependent stability of HyCar with respect to human serum carnosinase, compared with the stability of the mixture of carnosine+HA or carnosine alone, was determined by incubating each of these substances (900 μM) at 37° C. in 50 mM Tris/HCl (pH 8.0) with the above-mentioned enzyme (CN1), purified by the culture medium of Hela cells stably transfected as previously indicated (Antioxid. Redox Signal., 11, 2759, 2009). A parallel experiment was effected as negative control, in which hyaluronic acid alone was subjected to enzymatic action. The course of the reaction was followed by collecting, at various time intervals, 50 μl aliquots of the mixture for a total of 5 hours, and, after deproteinization with trichloroacetic acid (TCA), fluorometrically determining the quantity of histidine in the final solution, after reaction with ortho-phthalic aldehyde (OPA; Fluka), according to a procedure already described (Clin. Chim. Acta, 1982, 123, 221).
More specifically, FIG. 5 indicates the stability with time of HyCar (●), subjected to the action of human serum carnosinase, compared with the stability of carnosine (▪), carnosine+HA (▴), and HA alone (♦)(the latter used as negative control of the experiment). The histidine released was spectrophotometrically determined as OPA-derivative.

[2] = Intrinsic viscosity by size exclusion chromatography with triple detector; type: physicochemical; conditions: for Intrinsic viscosity: 40°C, 0.1M sodium nitrate
Description: Experiments aimed at determining the molecular weight distribution (MWD) and the intrinsic viscosity of the conjugated HyCar were effected on a CPG/SEC chromatographic system equipped with a Malvern triple detector (ViscoteckTDmax).
The parameters indicated above were determined by means of size exclusion chromatography carried out on the chromatographic system GPCmax VE 2001 (Malvern), equipped with two TSK-GEL GMPWXL columns (7.8 mm ID×30 cm; Viscotek-TOSOH BIOSCIENCE) installed in series. The system is coupled with a system of three detectors positioned in series and comprising: a refraction index detector, a light scattering detector and a four-capillary differential viscometer. The sample was eluted using an aqueous solution 0.1M of sodium nitrate containing 0.5 g/L of sodium azide with a flow of 0.6 ml/min, at 40° C. The software Omnisec 4.1 was used for the acquisition and data analysis.
The physical parameters relating to the intrinsic viscosity and molecular weight (MW), determined at different concentrations for the conjugate of hyaluronic acid-carnosine, compared with those of the corresponding hyaluronic acid, determined by means of size exclusion chromatography coupled with a triple detector, are indicated in Table 1 below.

Substance: conjugated 3-N-hyaluronyl of 2-(3-aminopropanamide)-3-(1H-imidazol-4-yl)propanoic acid [HyCar (7%)190 kD]
- resistance to the action of human serum carnosinase [1]: greater resistance
- intrinsic viscosity compared with non-conjugated hyaluronic acid of the same MW (in words) [2]: only slightly lower
- Intrinsic viscosity ([2]; theoretical conc. 0.1 mg/ml): 4.9 dL/g
- Intrinsic viscosity ([2]; theoretical conc. 0.25 mg/ml): 4.8 dL/g
- Intrinsic viscosity ([2]; theoretical conc. 0.5 mg/ml): 4.8 dL/g
